Columns and labels:
[1] = molecular target: CpaF from C. crescentus (C. crescentus NA1000); assay: cryo-EM structure; 5 mg/mL CpaF without nucleotide addition, in the presence of Mg2+, 8 mM CHAPSO; single particle, C2 symmetry
[2] = molecular target: CpaF from C. crescentus (C. crescentus NA1000); assay: cryo-EM structure; 5 mg/mL CpaF with 4 mM ADP, 5 mM MgSO4 in total, 8 mM CHAPSO, 45 min at room temperature before vitrification; single particle, C2 symmetry
[3] = molecular target: CpaF from C. crescentus (C. crescentus NA1000); assay: cryo-EM structure; 5 mg/mL CpaF with 4 mM AMPPNP, 5 mM MgSO4 in total, 8 mM CHAPSO, 45 min at room temperature before vitrification; single particle, C2 symmetry

stoichiometry N [1]: 6
stoichiometry N [2]: 6
stoichiometry N [3]: 6
Substance: CpaF from C. crescentus (enzyme)
